# From US6884616
# Tests used:
# [1] = target: Mononine (purified Factor IX) (UniProt P00740)
# [2] = target: Recombinant human Factor IX immunoprecipitated from supernatants of GPIIb-FIX(WT.I1)-transfected HEL cells (UniProt P00740)
substance,measurement,setting,value
"Factor XIa (Enzyme Research Lab., Swansea, UK)",FIX cleavage after incubation with FXIa (rate of activation and protein profile),[1],The rate of activation and the protein profile from HEL supernatants was similar to the results obtained with Mononine
same,"FIX cleavage after incubation with FXIa (immunoblot of immunoprecipitated FIX, enzyme/substrate 1/40)",[2],activation of the immunoprecipitated FIX from HEL cells resulted in the appearance of two bands corresponding to the heavy chain (29 kDa) and the light chain (19 kDa)
